These results are taken from the Immune Epitope Database (IEDB).

A value given as a limit tells only on which side of the number the result lay.

The target of one assay is HLA-A*30:01. The assay can be described thus: IEDB peptide-MHC binding, purified MHC/competitive/radioactivity; filed as Kd, often an IC50 or EC50 that approximates it; ≥ and ≤ were set here for values at or beyond the usual limits of such assays.
In another assay the target is HLA-B*44:02. The assay is described as above. Conditions: source organism: Dengue virus 1 Brazil/97-11/1997.
The target in assay [1] is HLA-A*02:01. Description: IEDB peptide-MHC binding, purified MHC/competitive/fluorescence; ≥ and ≤ were set here for values at or beyond the usual limits of such assays.
The target in assay [2] is HLA-A*24:02. The assay is described as above.
In assay [3] the target is HLA-A*02:01. Description: IEDB peptide-MHC binding, purified MHC/competitive/radioactivity; filed as Kd, often an IC50 or EC50 that approximates it; ≥ and ≤ were set here for values at or beyond the usual limits of such assays.
Another assay concerns the target HLA-A*11:01. The description is as above. To be noted: source organism: Vaccinia virus WR.
Another assay has as its target HLA-A*68:01. The assay is described as above. Conditions: source organism: Vaccinia virus WR.
In a further assay the target is HLA-A*31:01. The description is as above. To be noted: source organism: Vaccinia virus WR.
A further assay concerns the target HLA-A*33:01. The description is as above. Conditions: source organism: Vaccinia virus WR.
A further assay addresses HLA-A*03:01. The description is as above. To be noted: source organism: Vaccinia virus WR.
The target in assay [4] is HLA-A*26:01. The assay can be described thus: IEDB peptide-MHC binding, purified MHC/direct/fluorescence; filed as Kd, often an IC50 or EC50 that approximates it; ≥ and ≤ were set here for values at or beyond the usual limits of such assays.
In another assay the target is HLA-B*53:01. Description: IEDB peptide-MHC binding, purified MHC/competitive/radioactivity; filed as Kd, often an IC50 or EC50 that approximates it; ≥ and ≤ were set here for values at or beyond the usual limits of such assays. Conditions: source organism: Dengue virus 2 Jamaica/1409/1983.
The target in assay [5] is HLA-A*26:01. Described as above. To be noted: source organism: Dengue virus 2 Jamaica/1409/1983.
For the next assay, the target named is HLA-A*23:01. The assay is described as above.
The target of assay [6] is HLA-A*24:02. The assay is described as above.
Where [7] appears, read: source organism: Dengue virus 2 Jamaica/1409/1983.
[8] abbreviates: source organism: Sudan ebolavirus.
The mark [9] stands for this setting: source organism: Zaire ebolavirus.
Setting [10] is: source organism: Vaccinia virus WR.
Setting [11] is: source organism: Vaccinia virus Copenhagen.
The mark [12] stands for this setting: source organism: Dengue virus 4 Thailand/0348/1991.

Usually Kd stands for the free concentration of one partner at which half of the binding sites on the other are occupied at equilibrium, for simple one-to-one binding. Take KRSLRPQPTE: the Kd with HLA-A*30:01 (setting [7]) worked out at 3.69 µM.

Consider EERDIPERSW, for which the Kd with HLA-B*44:02 was found to be 0.0724 µM. What is called IC50 is the concentration that inhibits the measured activity by half. On to HLHQQLSNT, for which the IC50 with HLA-A*02:01 [1] (setting [8]) worked out at 15 µM.

PVYQVNNLE gave an IC50 with HLA-A*24:02 [2] (setting [9]) not below 100 µM. YIGEVLVSV yielded a 50% inhibitory concentration (IC50) with HLA-A*02:01 [1] (source organism: Homo sapiens) of 0.01 µM. Take LFQKAFSMP: in the assay with HLA-A*24:02 [2] (setting [8]), the IC50 was 2.78 µM. As for VLLGVKLSGV, the Kd with HLA-A*02:01 [3] (source organism: Homo sapiens) worked out at 0.0047 µM. Regarding KFRPGSLIY, the Kd with HLA-A*11:01 was not below 58.4 µM; with HLA-A*68:01, not below 77.7 µM; in the assay with HLA-A*31:01 it was 11.3 µM; in the assay with HLA-A*33:01 it was not below 77.7 µM; in the assay with HLA-A*03:01, not below 21.3 µM; with HLA-A*30:01 (setting [10]), 0.000303 µM. Sequence SVGGVFTSV yielded an IC50 with HLA-A*02:01 [1] (source organism: West Nile virus NY-99) of 0.247 µM. This counts as sub-micromolar. In the assay with HLA-A*02:01 [1] (source organism: Hepatitis C virus genotype 1), YLFNWAVRT had an IC50 of 5 µM. This counts as single-digit micromolar.

In the assay with HLA-A*02:01 [1] (setting [8]), STSNGLITS gave an IC50 not below 177 µM. For the sequence YWPVMNHKN, the concentration for half-maximal inhibition (IC50) in the assay with HLA-A*24:02 [2] (setting [9]) worked out at 7.12 µM. The sequence EGINELGAM came in with a Kd in the assay with HLA-A*26:01 [4] (source organism: Vibrio vulnificus CMCP6) of 0.048 µM.

LTKLFSYGT came in with an IC50 with HLA-A*02:01 [1] (source organism: Variola virus) of 36.1 µM. This lies in the double-digit micromolar range. Consider CLPAAPDGI, for which the values for the IC50 in the assay with HLA-A*02:01 [1] (setting [9]) and with HLA-A*24:02 [2] (setting [9]) were 3.84 µM and 37.4 µM, respectively. TISGVLWQV: the Kd with HLA-A*02:01 [3] (source organism: Hepatitis C virus subtype 2b) was determined as 0.035 µM. Consider MAICSAVPTE, for which the Kd in the assay with HLA-A*30:01 (source organism: Dengue virus 4 Philippines/H241/1956) stood at 10.6 µM.

With YPNVCIFGN, in the assay with HLA-A*24:02 [2] (source organism: Vaccinia virus), the concentration for half-maximal inhibition (IC50) worked out at 35.5 µM. For the sequence AFKVRPTFA, the dissociation constant (Kd) with HLA-A*30:01 (setting [7]) was found to be 0.0521 µM. With EPIPMSTYGW, the figures for the Kd with HLA-B*53:01 and with HLA-A*26:01 [5] were 0.334 µM and not below 40.5 µM, respectively.

FQESADSFL gave an IC50 with HLA-A*02:01 [1] (setting [9]) of 14 µM. Turning to DKFRKSSFF, the IC50 with HLA-A*24:02 [2] (setting [8]) amounted to 52.2 µM. Consider RYVHKVSGT, for which the IC50 in the assay with HLA-A*02:01 [1] (setting [9]) was not below 90.9 µM; in the assay with HLA-A*24:02 [2] (setting [9]), 6.66 µM. In the assay with HLA-A*02:01 [1] (setting [9]), LSFTVVSNG returned an IC50 not below 325 µM. Turning to SSQMTSTFI, the IC50 with HLA-A*02:01 [1] (setting [11]) was not below 72.6 µM; with HLA-A*24:02 [2] (setting [11]) it was not below 70.9 µM. In the case of AYTIGTTHF, the Kd came out at 0.126 µM with HLA-A*23:01 (setting [7]) and 0.774 µM with HLA-A*24:02 [6] (setting [7]). As to QAFTFSPTYK, in the assay with HLA-A*02:01 [3] (source organism: Hepatitis B virus subtype adw2), the Kd is not below 35 µM. Regarding ELMMATIGIA, the Kd with HLA-A*26:01 [5] came to 0.065 µM. With TSFFLWVII, the IC50 in the assay with HLA-A*02:01 [1] (setting [9]) was not below 503 µM; with HLA-A*24:02 [2] (setting [9]), not below 131 µM.

As for SVKCQSPPS, the Kd with HLA-A*30:01 (setting [10]) was found to be 0.0168 µM. In turn, CLEKVQRQI displayed an IC50 with HLA-A*02:01 [1] (setting [9]) of 21.9 µM. For VWIEDNPNMI, the Kd with HLA-A*23:01 (setting [12]) worked out at 0.472 µM; with HLA-A*24:02 [6] (setting [12]), 0.546 µM.

KAKTTISNY: the Kd with HLA-A*30:01 (setting [10]) was 0.0243 µM. As for SYLAGAGLLF, the results for the Kd with HLA-A*23:01 (setting [7]) and with HLA-A*24:02 [6] (setting [7]) were 0.000709 µM and 0.00622 µM, respectively.

On to TTRDKLFNK, for which the Kd with HLA-A*30:01 (setting [10]) stood at 0.123 µM. MVPLHIPEG came in with an IC50 with HLA-A*02:01 [1] (setting [8]) of 38.2 µM. That is a double-digit micromolar value. In the case of NWLNNNTQF, the figures for the Kd with HLA-A*23:01 (setting [7]) and in the assay with HLA-A*24:02 [6] (setting [7]) were 0.716 µM and 0.088 µM, respectively.

Consider KAISNARLK, for which, in the assay with HLA-A*30:01 (setting [10]), the Kd is 0.026 µM. In the assay with HLA-A*26:01 [4] (source organism: Bacillus cereus AH1134), EVADRILFM yielded an equilibrium dissociation constant (Kd) of 0.003 µM.
